Measured values published in IntAct's records for PubMed 21920025.

Key:
prio_bovin PRNP = prio_bovin PRNP (UniProt P10279)
prio_human PRNP = prio_human PRNP (UniProt P04156)

Substance | effect of a mutation on the interaction (prio_bovin PRNP) | effect of a mutation on the interaction (prio_human PRNP)
Major prion protein (Homo sapiens) (from UniProt P04156) M129V | decreasing interaction | –
Major prion protein (Bos taurus (Bovine)) (from UniProt P10279) L149I | – | decreasing interaction
